For series [1], the target named is T1, DENV2 NS1 (Dengue virus serotype 2) (UniProt Q9WDA6).
T1 sequence: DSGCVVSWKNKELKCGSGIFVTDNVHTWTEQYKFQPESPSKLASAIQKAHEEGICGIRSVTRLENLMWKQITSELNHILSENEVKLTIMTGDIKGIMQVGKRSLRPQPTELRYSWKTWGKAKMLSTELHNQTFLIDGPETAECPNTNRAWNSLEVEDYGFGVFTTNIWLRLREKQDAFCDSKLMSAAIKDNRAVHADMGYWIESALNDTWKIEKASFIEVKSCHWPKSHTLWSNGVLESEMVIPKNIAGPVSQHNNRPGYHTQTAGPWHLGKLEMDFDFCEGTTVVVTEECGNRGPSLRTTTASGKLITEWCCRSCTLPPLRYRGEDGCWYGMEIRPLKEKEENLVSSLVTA
Nature of the series: filter binding with qPCR.

In series [2] the target is T2, DENV4 NS1 (Dengue virus serotype 4) (UniProt Q2YHF0).
T2 sequence: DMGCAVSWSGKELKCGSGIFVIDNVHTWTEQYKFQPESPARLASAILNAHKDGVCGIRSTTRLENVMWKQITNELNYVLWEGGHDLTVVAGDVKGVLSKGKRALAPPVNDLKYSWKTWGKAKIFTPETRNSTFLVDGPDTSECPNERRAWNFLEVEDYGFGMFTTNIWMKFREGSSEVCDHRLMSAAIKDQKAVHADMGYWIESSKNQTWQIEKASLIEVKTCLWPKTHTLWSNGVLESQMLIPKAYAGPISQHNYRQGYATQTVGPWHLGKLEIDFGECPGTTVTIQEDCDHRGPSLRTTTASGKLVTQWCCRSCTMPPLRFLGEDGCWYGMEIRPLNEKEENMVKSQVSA
Kind of series: filter binding with qPCR. Conditions: ELONA: borate buffer (60 mM in selection), 37 °C, 30 min, pH not stated; specificity: selection buffer, filtration, qPCR; FET: human serum as gate electrolyte ….

In the case of “CTTCTGCCCGCCTCCTTCCGGGCCCCGGGGGGTGTCCAGGCCCATGCGTCGTCCGCGGGGAGACGAGATAGGCGGACACT [ZIKV60]”, the binding signal (ratio ZIKV NS1/DENV2 NS1 bound) in series [1] came to 14.8. The binding signal (ratio ZIKV NS1/DENV4 NS1 bound) in series [2] came to 14.8.

For the origin of these results see paper PMC9443353.
